The text below walks through data of PMC11795597, “The NADH-dependent flavin reductase ThdF follows an ordered sequential mechanism though crystal structures reveal two FAD molecules in the active site” (The Journal of Biological Chemistry, 2024).

For series [1], the target named is T1, ThdF (Streptomyces albogriseolus, UniProt A0A1B1V585). Briefly: steady-state inhibition kinetics (NADH turnover at […] nm). The series is classed as biochemical.
Series [2] addresses T2, ThdF (Streptomyces albogriseolus, UniProt A0A1B1V585).
T2 construct: apoThdF (full length) for Kd; elastase-digested ThdF, residues about 7-167 built, for crystals
T2 sequence (A0A1B1V585 1-193): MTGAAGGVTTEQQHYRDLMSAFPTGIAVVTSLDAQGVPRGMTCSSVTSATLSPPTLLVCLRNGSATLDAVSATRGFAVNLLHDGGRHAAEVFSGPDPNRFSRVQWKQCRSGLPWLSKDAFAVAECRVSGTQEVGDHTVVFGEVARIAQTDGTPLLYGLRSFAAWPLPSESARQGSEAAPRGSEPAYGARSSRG
The series can be described thus: fluorescence anisotropy; crystal structures ([…] and […] Å) with two FAD per chain. Type of series: binding. (In general: Fluorescence polarisation rises when a labelled molecule tumbles more slowly, as on binding a larger partner.)

Series [3] has as its target T1, ThdF. The series can be described thus: steady-state product inhibition kinetics. Type of series: biochemical.
For series [4], the target named is ThdF after in situ proteolysis with elastase, as crystallised (crystal forms 1 and 2) (Streptomyces albogriseolus). The series can be described thus: crystal structure; ThdF with elastase (in situ proteolysis), sitting drop, 20 °C; crystal form 1 (P212121) and form 2 (P21) with two FAD per chain, and form 1 soaked with NADH and dithionite; four molecules per asymmetric unit.

Substrate in series [5]: Cc1cc2nc3c(=O)[nH]c(=O)nc-3n(C[C@H](O)[C@H](O)[C@H](O)COP(=O)(O)O)c2cc1C
The series can be described thus: steady-state kinetics, KM as variable substrate. Type of series: biochemical, Streptomyces albogriseolus. The settings on record: NADH.

Series [6] concerns the molecule itself. The series can be described thus: crystal structure; full-length ThdF without protease, initial screening, 2.9 Å; not fully refined and not deposited.
Substrate in the series “purified protein”: NC(=O)C1=CN([C@@H]2O[C@H](COP(=O)(O)OP(=O)(O)OC[C@H]3O[C@@H](n4cnc5c(N)ncnc54)[C@H](O)[C@@H]3O)[C@@H](O)[C@H]2O)C=CC1
Briefly: purified protein.

As to `Nc1ncnc2c1ncn2[C@@H]1O[C@H](COP(=O)(O)O)[C@@H](O)[C@H]1O` [AMP], the “steady-state inhibition kinetics (NADH turnover at 340 nm)” value at ThdF [1] is “The lines intersecting on the ordinate indicate competitive inhibition of NADH by AMP”.

For orientation: Kd means the equilibrium constant for the complex coming apart. Higher therefore signals lower affinity. In turn, `Cc1cc2nc3c(=O)[nH]c(=O)nc-3n(C[C@H](O)[C@H](O)[C@H](O)COP(=O)(O)OP(=O)(O)OC[C@H]3O[C@@H](n4cnc5c(N)ncnc54)[C@H](O)[C@@H]3O)c2cc1C` [FAD] returned a Kd at ThdF [2] of 6.8 ± 0.2 µM.

Regarding `NC(=O)c1ccc[n+]([C@@H]2O[C@H](COP(=O)([O-])OP(=O)(O)OC[C@H]3O[C@@H](n4cnc5c(N)ncnc54)[C@H](O)[C@@H]3O)[C@@H](O)[C@H]2O)c1` [NAD^+], on ThdF [3], the “steady-state product inhibition kinetics” value is “For both substrates, NAD^+ was found to produce a noncompetitive inhibition pattern”.

Regarding `NC(=O)c1ccc[n+]([C@@H]2O[C@H](COP(=O)([O-])O)[C@@H](O)[C@H]2O)c1` [NMN], at ThdF [1], the “steady-state inhibition kinetics (NADH turnover at 340 nm)” value was “The NADH-dependent measurement with NMN showed intersecting lines on the ordinate, confirming competitive inhibition toward NADH”.

As usually defined, the stoichiometry N is a count of units in the complex or per binding partner. As for “ThdF after in situ proteolysis with elastase, as crystallised (crystal forms 1 and 2) (from UniProt A0A1B1V585 6-171) (domain or fragment)”, the stoichiometry N in series [4] amounted to 2.

B1: NADH-dependent flavin reductase ThdF from Streptomyces albogriseolus, full length, His6-tag removed by TEV protease (enzyme, UniProt A0A1B1V585 1-193, looked up)
chain: T2 sequence (A0A1B1V585 1-193)
notes: flavin reductase ThdF of the thienodoline biosynthetic gene cluster, Streptomyces albogriseolus; 193 residues (truncation to 1-168 removed amino acids 169-193); residual amino acids from TEV protease digestion are left at the N terminus; Codon-optimised synthetic gene in pETM-11; copurifies with FAD (occupancy about 124%); the PDB entries 9fd4-9fd6 come from this protein after elastase digestion; …
The Km is the substrate concentration at which the rate is half of its maximum. In general, kcat refers to the maximal rate divided by the concentration of active sites. Regarding B1, in series [5], the Km worked out at 0.28 ± 0.07 µM and the kcat came out at 0.2 ± 0.08 s⁻¹. In addition, the “stoichiometry N” value in series [6] came to 2.

B2: ThdF (Streptomyces albogriseolus) (protein)
chain: GGVTTEQQHYRDLMSAFPTGIAVVTSLDAQGVPRGMTCSSVTSATLSPPTLLVCLRNGSATLDAVSATRGFAVNLLHDGGRHAAEVFSGPDPNRFSRVQWKQCRSGLPWLSKDAFAVAECRVSGTQEVGDHTVVFGEVARIAQTDGTPLLYGLRSFAAWPLPSESA
Turning to B2, the Km in the series “purified protein” stood at 19.5 ± 5.6 µM. Also, in “purified protein” (FAD binds instead of the stacked FAD, R16 contacts the NMN ribose, H136 of the GDH motif the nicotinamide, S48 of the second protomer), the kcat was found to be 0.26 s⁻¹.
